Sequences and labels used below:
B1: Mothers against decapentaplegic homolog 4 (Homo sapiens), Q13485 (parent)
chain: MDNMSITNTPTSNDACLSIVHSLMCHRQGGESETFAKRAIESLVKKLKEKKDELDSLITAITTNGAHPSKCVTIQRTLDGRLQVAGRKGFPHVIYARLWRWPDLHKNELKHVKYCQYAFDLKCDSVCVNPYHYERVVSPGIDLSGLTLQSNAPSSMMVKDEYVHDFEGQPSLSTEGHSIQTIQHPPSNRASTETYSTPALLAPSESNATSTANFPNIPVASTSQPASILGGSHSEGLLQIASGPQPGQQQNGFTGQPATYHHNSTTTWTGSRTAPYTPNLPHHQNGHLQHHPPMPPHPGHYWPVHNELAFQPPISNHPAPEYWCSIAYFEMDVQVGETFKVPSSCPIVTVDGYVDPSGGDRFCLGQLSNVHRTEAIERARLHIGKGVQLECKGEGDVWVRCLSDHAVFVQSYYLDREAGRAPGDAVHKIYPSAYIKVFDLRQCHRQMQQQAATAQAAAAAQAAAVAGNIPGPGSVGGIAPAISLSAAAGIGVDDLRRLCILRMSFVKGWGPDYPRQSIKETPCWIEIHLHRALQLLDEVLHTMPIADPQPLD
partner: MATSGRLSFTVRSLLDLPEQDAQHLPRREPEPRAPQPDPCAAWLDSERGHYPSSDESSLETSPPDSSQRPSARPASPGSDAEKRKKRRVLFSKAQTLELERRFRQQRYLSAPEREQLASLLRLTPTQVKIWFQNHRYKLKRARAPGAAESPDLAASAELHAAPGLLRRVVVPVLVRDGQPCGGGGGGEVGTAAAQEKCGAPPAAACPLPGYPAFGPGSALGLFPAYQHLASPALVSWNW
B2: Mothers against decapentaplegic homolog 4 (Homo sapiens), Q13485 (parent)
chain: B1 chain
partner: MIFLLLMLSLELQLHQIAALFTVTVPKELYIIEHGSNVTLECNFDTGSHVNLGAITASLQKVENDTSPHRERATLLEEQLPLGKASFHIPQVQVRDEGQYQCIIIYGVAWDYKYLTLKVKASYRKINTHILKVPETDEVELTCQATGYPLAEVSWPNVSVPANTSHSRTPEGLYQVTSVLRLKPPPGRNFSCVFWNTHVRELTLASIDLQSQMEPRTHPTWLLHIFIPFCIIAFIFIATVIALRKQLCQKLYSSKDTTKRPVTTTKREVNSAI
B3: Mothers against decapentaplegic homolog 4 (Homo sapiens), Q13485 (parent)
chain: B1 chain
partner: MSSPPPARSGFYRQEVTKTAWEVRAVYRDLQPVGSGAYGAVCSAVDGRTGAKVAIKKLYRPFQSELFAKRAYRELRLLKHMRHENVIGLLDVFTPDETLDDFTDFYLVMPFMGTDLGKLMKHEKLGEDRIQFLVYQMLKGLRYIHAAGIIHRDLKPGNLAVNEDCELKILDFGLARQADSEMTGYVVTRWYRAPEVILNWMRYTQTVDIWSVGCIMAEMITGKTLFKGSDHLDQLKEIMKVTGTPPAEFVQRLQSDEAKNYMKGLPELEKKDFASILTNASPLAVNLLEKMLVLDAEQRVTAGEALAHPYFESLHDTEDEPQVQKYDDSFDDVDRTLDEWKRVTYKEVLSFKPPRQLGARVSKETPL
B4: Mothers against decapentaplegic homolog 4 (Homo sapiens), Q13485 (parent)
chain: B1 chain
partner: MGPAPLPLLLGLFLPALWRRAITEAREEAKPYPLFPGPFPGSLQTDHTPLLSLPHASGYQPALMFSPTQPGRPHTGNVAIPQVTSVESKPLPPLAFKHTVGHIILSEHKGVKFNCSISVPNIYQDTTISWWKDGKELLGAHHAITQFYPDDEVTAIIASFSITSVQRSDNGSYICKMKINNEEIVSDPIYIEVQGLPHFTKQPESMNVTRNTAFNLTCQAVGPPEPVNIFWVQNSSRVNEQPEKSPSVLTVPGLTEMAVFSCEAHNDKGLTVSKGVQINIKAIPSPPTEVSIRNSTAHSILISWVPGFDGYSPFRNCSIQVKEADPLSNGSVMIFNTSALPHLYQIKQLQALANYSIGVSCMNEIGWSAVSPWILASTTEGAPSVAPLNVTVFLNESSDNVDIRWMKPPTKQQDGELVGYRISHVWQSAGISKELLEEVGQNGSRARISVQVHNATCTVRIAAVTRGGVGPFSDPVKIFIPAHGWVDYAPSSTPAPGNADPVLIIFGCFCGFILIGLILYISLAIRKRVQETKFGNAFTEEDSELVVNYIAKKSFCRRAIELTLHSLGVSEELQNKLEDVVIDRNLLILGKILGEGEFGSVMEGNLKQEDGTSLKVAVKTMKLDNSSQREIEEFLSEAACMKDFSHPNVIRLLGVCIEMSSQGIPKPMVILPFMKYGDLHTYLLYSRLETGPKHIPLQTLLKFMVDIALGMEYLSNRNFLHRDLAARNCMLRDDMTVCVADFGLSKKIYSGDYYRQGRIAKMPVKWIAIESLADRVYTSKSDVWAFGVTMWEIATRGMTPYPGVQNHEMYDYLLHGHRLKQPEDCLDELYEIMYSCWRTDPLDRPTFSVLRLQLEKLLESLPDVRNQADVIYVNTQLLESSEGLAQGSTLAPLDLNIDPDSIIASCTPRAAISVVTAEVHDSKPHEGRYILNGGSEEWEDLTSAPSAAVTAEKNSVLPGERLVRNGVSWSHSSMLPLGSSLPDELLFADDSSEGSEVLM

In one experiment the parent is B1. As to conditions: with nkx28_human NKX2-8, O15522.
Take R361H: the “effect of a mutation on the interaction” value is given as “with no effect”.

The variants in the next experiment derive from B1. Conditions: with nkx28_human NKX2-8, O15522. This is another data set of the same source.
Take G386D: the “effect of a mutation on the interaction” value is given as “with no effect”.

The variants in the next experiment derive from B2. As to conditions: with pd1l2_human PDCD1LG2, Q9BQ51.
As to D351H, the “effect of a mutation on the interaction” value is on record as “with no effect”.

The variants in another experiment derive from B2. As to conditions: with pd1l2_human PDCD1LG2, Q9BQ51. This is another data set of the same source.
On to G386D, for which the “effect of a mutation on the interaction” value was “with no effect”.

Variants of B3 are the subject of another experiment. Conditions: with mk12_human MAPK12, P53778.
Take R361C: the “effect of a mutation on the interaction” value was “with no effect”.

Variants of B3 are the subject of the next experiment. Conditions: with mk12_human MAPK12, P53778. The source holds these as a separate data set.
As for R361H, the “effect of a mutation on the interaction” value is reported as “with no effect”.

In another experiment the parent is B3. Conditions: with mk12_human MAPK12, P53778. This is another data set of the same source.
On to G386D, for which the “effect of a mutation on the interaction” value is on record as “with no effect”.

Another experiment covers variants of B3. As to conditions: with mk12_human MAPK12, P53778. This is another data set of the same source.
D351H: the “effect of a mutation on the interaction” value was “with no effect”.

A further experiment covers variants of B4. As to conditions: with mertk_human MERTK.
Take G386D: the “effect of a mutation on the interaction” value is “with no effect”.

The variants in a further experiment derive from B4. As to conditions: with mertk_human MERTK. This is another data set of the same source.
Take R361H: the “effect of a mutation on the interaction” value is reported as “with no effect”.

The next experiment covers variants of B4. As to conditions: with mertk_human MERTK. The source holds these as a separate data set.
On to R361C, for which the “effect of a mutation on the interaction” value is listed as “with no effect”.

The variants in the next experiment derive from B4. As to conditions: with mertk_human MERTK. The source holds these as a separate data set.
Take D351H: the “effect of a mutation on the interaction” value is “with no effect”.

The values are drawn from IntAct's records for PubMed 35512704.
